assay: soluble on expression in E. coli; label from the status in PepcDB or PDB records

Q: For “AAADSTSMSYSVTLTGPGPWGFRLQGGKDFNMPLTISRITPGSKAAQSQLSQGDLVVAIDGVNTDTMTHLEAQNKIKSASYNLSLTLQKSKRPIPISTTAPPVQTPLPVIPHQKDPALDTNGSLVAPSPSPEARASPGTPGTPELRPTFSPAFSRPSAFSSLAEASDPGPPRASLRAKTSPEGARDLLGPKALPGSSQPRQYNNPIGLYSAETLREMAQMYQMSLRGKASGVGLPGGSLPIKDLAVDSASPVYQAVIKSQNKPEDEADEWARRSSNLQSRSFRILAQMTGTEFMQDPDEEALRRSSTPIEHAPVCTSQATTPLLPASAQPPAAASPSAASPPLATAAAHTAIASASTTAPASSPADSPRPQASSYSPAVAASSAPATHTSYSEGPAAPAPKPRVVTTASIRPSVYQPVPASTYSPSPGANYSPTPYTPSPAPAYTPSPAPAYTPSPVPTYTPSPAPAYTPSPAPNYNPAPSVAYSGGPAEPASRPPWVTDDSFSQKFAPGKSTTSISKQTLPRGGPAYTPAGPQVPPLARGTVQRAERFPASSRTPLCGHCNNVIRGPFLVAMGRSWHPEEFTCAYCKTSLADVCFVEEQNNVYCERCYEQFFAPLCAKCNTKIMGEVMHALRQTWHTTCFVCAACKKPFGNSLFHMEDGEPYCEKDYINLFSTKCHGCDFPVEAGDKFIEALGHTWHDTCFICAVCHVNLEGQPFYSKKDRPLCKKHAHTINL”, which “soluble on expression in E. coli” value is on record?
A: soluble

Q: Which “soluble on expression in E. coli” value does the source give for “MPIRAARASLRRMDSDFLIIGGGIAGVSAAARLSELGSVTLLEAEDALAHHASSRSAALYEPRYGLPPVVELSLASGDFFRAADGILSPRGLLVVGREAEREQFEDETVGMHLERISAEEARAAVPILRPDVTLAARADHAWDIDTDRLLQGFAREARARGARIVTKARVGAIARDGAGWRVEAGESYRARILVNAAGAWADGVAALSGVRPLGLVPYRRSMARIPAPGGHDISRWPMIFGVGESWYAKPDAGALIVSPADEDPQEPHDAWADDMVLAEGLARYEEMVTEPVTRLLASWAGLRTFAPDRVLVIGEDPAAPGFFWLAGQGGYGFQTCPAASRLAADLIGGRSPEVPAALIAALSPDRFALEHHHHHH” here?
A: not soluble

Q: Which “soluble on expression in E. coli” value does the source give for “MTDGTPTTLTDRIEAALRDVRDPNADLSVFDAGFVENIDAADGEVTIEADLTALDGQTSTQVVQAMLHAVDDVDGVDSVHVERTTPTGEGNAGVESFDRVVAVASAKGGVGKSTVATHLACALAADNDVALFDADIHGPNVPELLDVSGPVHSSEEGDPLPVRAGDMDVMSVGLMESGAPLAWRGAMAHDALNDLFENTAWRNDDVLVLDLPPGTGDVVLTTLQEVPVDGVVVVTTPFHASVSDTSRTVELFRDNDVPVLGTVVNMAEYVCDCCGEPNDLFTGDALGDLDAEVLAELPFSHDLQGTPAPGSVPDAVSSLGDAVESALDTAGEVGVDPTADIRDLQPQERKDRVRERFTALDSGEPFVLVSDRDPTPVGQFLGRLAEAPREAFDPFEVRRETPEAWVLETAKPLEHHHHHH” here?
A: soluble

Q: Which “soluble on expression in E. coli” value does the source give for “EDAALREEAKGLFEVIPMQAPQLADNNTVTRDKIDLGAMLFFDPRMSKSGVFSCQSCHNVGLGGVDGLETSIGHGWQKGPRNAPTALNAVFNVAQFWDGRAPDLAAQAKGPVQAGVEMNNTPENLVATVQSMPGYVEAFAKAFPGQKDPISFDNFALAVEAFEATLITPNSKFDQWLMGADGAMSADEKAGLKLFIDTGCAACHNGINIGGNGYYPFGVVEKPGAEVLPAGDKGRFAVTATADDEYVFRAGPLRNIALTAPYFHSGKVWDLREAVSVMANSQLGATLDDTQVDQITAFLGTLTGEQPEVVHPILPVRSAQTPRPEHMN” here?
A: soluble

Q: Which “soluble on expression in E. coli” value does the source give for “MGSDKIHHHHHHMSFKSSIAKMAGKSSYWFLHTFRSGGSSLPGKITTKIDPTILKDLGKDYDVIVITGTNGKTLTTALTVKVLRQKFDHVLTNPTGSNMEQGIVTTFLTDHKSKNGKNIAILEVDEANVIKVTQYIKPLAFVFTNIFRDQMDRYGEIYTTYRKILDGVKLAPEATIIANGDMPIFNSVDLPNPVVYYGFNNQPDGEMKADPNTDGVVCPRCEHIIHYKFISYSNQGKYYCPNCGWERPELTYQLTQITKLTPNLSKFFIDASNFTLHIGGLYNVYNALAAYSVGKFMGVPTSSIQKALNDPDERVFGRQEQINVDGKEITIVLVKNPVGLNQVIDMVGTESEPFSFVGLLNANYADGIDTSWIWDGNFEKLTQMPIQQYMTGGERYKDITFRLKVAGIEDNQLWTYDNLKDAVSNIKNLPTKRVYVFATYTAMLQLRKQLATEGYIKEGI” here?
A: not soluble

Q: For “MKNSFQTLKTLTTKSGTYGYYDLQELERKGVAEVSRLPFSIRVMLESLLRNEDGYQVTREDIEALARWRPDPGEINVPLKLARVILQDFTGVPAVVDLAAMRDAIKAKGGDPKRINPVVPADLVIDHSVQVDAFGTAYAFFYNVEKEYERNRERYLLLKWAQNALENFRVVPPGTGIVHQVNIEYLTKVVMTGKRDGLTLAFPDSLVGTDSHTTMVNGLGVLGWGVGGIEAEAVMLGQPYYMLAPRVVGFKLYGELPEGATATDLVLTVTEMLRKHGVVGKFVEFYGPGVAKLSTPDRATIANMAPEYGATMGFFPVDEETLNYLRQTGRPEELVELVEAYTKAVGLFRTPEAEEKVQYSEYLELDLSAVEPSLAGPKRPQDRVPLKEVKKSFLAHLTKPVKERGFGLSEDQLQRKVLVKRRDEEFELTHGSVVIAAITSCTNTSNPSVMLGAGLLAKKAVEAGLDRKPWVKTSLAPGSKVVTDYLEMSGLMPFLEALGFHLVGYGCTTCIGNSGPLPEDIAKAVEEGNLVVAAVLSGNRNFEGRINPHVKANYLASPMLVVAYALAGRMDIDFTTEPLGFDPNGKPIYLKDIWPSMEEIREAIRKTLDPELFKKEYSKVFEGDERWQALPAPTGELYQWDPESTYIQNPPFFEDLGERKVEDIRGARVLLVLGDSVTTDHISPAGAIPVKSPAGQYLISKGVKPEDFNSYGSRRGNHEVMMRGTFANIRIKNLMLDGIEGGYAKKLPEGDVDFVYNVAMRYKAEGTPLLVIAGKEYGTGSSRDWAAKGTYLLGIRAVLAESFERIHRSNLVGMGVLPLEFLPGENRETLGLTGYEVYDILGLEDLKPRKLVDIVARREDGSEVRFQAIARLDTPVEVDYYKNGGILQTVLLNMLKEAKATE”, which “soluble on expression in E. coli” value is on record?
A: soluble

Q: For “VGPGMPFANRVVNRFGQVGLVPCSIGGTKLSQWQKGEFLYEETVKRAKAAMASGGGGSYRAVLWYQGESDTVDMVDASVYKKRLVKFFSDLRNDLQHPNLPIIQVRCLNT”, which “soluble on expression in E. coli” value is on record?
A: soluble

Q: For “MKKEHQKTLTFEIITPVVMAGTYKDEPELRIPSIKGMLRWWFRFFYASHNQSIDKLREHENEIFGSTEKACQFYMHLKYSQKLTDAYLAMNKRYGRYNNIKRKALEKNDTFRIDFIYSPFFTYKKELNTTLQLLSFLGGIGARWRRGFGSIQLKNGEDYKSFDKLKEKIEKVLKGKGEYHHDGFININNVDIYLVKPKRDNFWIDSLGAMNNLRKKVYKEFKSETNIKAIACKPKGGSRAVSPLIIQIKKFSEGKFYGILIVYNEWDKYEEFKNFINNNSELSFEQLLKSKPRKI”, which “soluble on expression in E. coli” value is on record?
A: soluble

Q: With “MNDIWWQTYGEGNCHLVLLHGWGLNAEVWHCIREELGSHFTLHLVDLPGYGRSSGFGAMTLEEMTAQVAKNAPDQAIWLGWSLGGLVASQMALTHPERVQALVTVASSPCFSAREGWPGIKPEILGGFQQQLSDDFQRTVERFLALQTLGTETARQDARTLKSVVLAQPMPDVEVLNGGLEILKTVDLREALKNVNMPFLRLYGYLDGLVPRKIVPLLDTLWPHSTSQIMAKAAHAPFISHPAAFCQALMTLKSSL” as the sequence, how does the “soluble on expression in E. coli” value read?
A: not soluble

Q: For “GINDLDISPIDPQTGGSFDQQGVFVKGYAMLGVTGQKGIDGSPDLDGQDEGESGFYRTTFNCNELPTDECLWAWQKNQDIPQLTSISWSPSSQRTEWVYVRLGYDITQYNFFLDQTEGMTDAETLRQRAEIRFLRALHYWYFLDLFGKAPFKEHFSNDLPVEKKGTELYTYIQNELNEIEADMYEPRQAPFGRADKAANWLLRARLYLNAGVYTGQTDYAKAEEYASKVIGSAYKLCTNYSELFMADNDENENAMQEIILPIRQDGVKTRNYGGSTYLVCGTRVAGMPRMGTTNGWSCIFARAAMVQKFFSNLEDVPMLPADVEIPTKGLDTDEQIDAFDAEHGIRTEDMIKAAGDDRALLYSGVGGGRRKIQTDAISGFTDGLSIVKWQNYRSDGKPVSHATYPDTDIPLFRLAEAYLTRAEAIFRQGGDATGDINELRKRANCTRKVQTVTEQELIDEWAREFYLEGRRRSDLVRFGMFTTNKYLWDWKGGAMNGTSVASYYNKYPIPVSDINNNRNMSQNEGYK”, which “soluble on expression in E. coli” value is on record?
A: soluble

Q: For “MSAWTMSDPYPATEAHAQRAAKSSPKSLLDRLLSLVRREPEDREGIKAILEAAHERELLDAESYAMIKGALAVSERTVADIMVPRSRMDLLDISQPLPQLLATIIETAHSRFPVYEDDRDNIIGILLAKDLLRYMLEPALDIRSLVRPAVFIPEVKRLNVLLREFRASRNHLAIVIDEHGGISGLVTMEDVLEQIVGDIEDEFDEDEEESIFPEGENQWRLTASTDISHFNATFATDLPDDEYDSVGGWLGGQLGRIPRRGDSADHDGLHIEVVRADARRALWLRVRRNAGAQPPASAAE”, which “soluble on expression in E. coli” value is on record?
A: not soluble

Q: Which “soluble on expression in E. coli” value does the source give for “MRGSHHHHHHGSVEVQVLIENVVFARNFVAEHGLSLLLKKGNKEIVVDTGQSENFIKNCGLMGIDVGRIKKVVLTHGHYDHIGGLKGLLERNPEVKIYTHKEILNKKYAMRKGGQFEEIGFDLSFYEKYKNNFVLIDKDAEIEEGFYVITNTDITYDNEFTTKNFFVEKEGKRIPDKFLDEVFVVVKEEDGINVVTGCSHAGILNILETARNRFGVSYIKSLIGGFHLRGMEEEKVKDIARKIEEYGVKKVLTGHCTGIDEYGFLKSVLKDKISYLTTSSSIVV” here?
A: soluble

Q: Which “soluble on expression in E. coli” value does the source give for “MSLRKVRVGIWGFGAMGIGMANMILKKEGIEIVSVCSRSTSGKSMYDVLGIERGERPEVIINKNYEEVFREKSVDVVLLATDSFTKKAFDKIIFLLNRKINVISTAEQMAYPQADDADLAKKMDEVAKENGVSILGTGINPGFVLDLLVLALSGTCEEVTSIKAKRVNDLSPFGKSVMVEQGVGVTREEFIKGVEDKTIAGHVGFVESINMIADGLGWKLDKIEQTKEPIMTTVDRKSKYGEALAGNVAGCRQCGYGYVNGEVLIEMEHPQQIIPEAEGIKTGDYVSIKGIPNIDLQINPEIPGGVGTYAMIVNSIPLIINARPGLKTMLDIPVPRAIMGDIRNQIEVELEEEGHHHHHH” here?
A: soluble

Q: With “MGSDKIHHHHHHMNINQLKTFIVLADCLSVTETSKRLFCTQPAVSIKIRKLEETLNTVLFERINNRLYLTEQGKIFYSYAEQIISTLEMSVEHLHQYDDPNYGKIIIGASHFVGVYLLPQVIAEYRKLSPNVELRLEILSSQQLIQGLENHSIDFIIMSDQIYFDPQKYDVNRFLSDELILIVPPDHVLATYESCHFEQLCDELFIIKPKNSQTRKFLLQQFSKDQISLLKFMEINSLEGIKRCVMNGLGVSIISRFSVENELKMGMLKAVELDSFQFKRGINYIYHKEKCLSSAIGRFIGLLNILK” as the sequence, how does the “soluble on expression in E. coli” value read?
A: not soluble

Q: With “MGSDKIHHHHHHENLYFQGMNTIDIAKSYITAIQTGDHATLGSIISPDVIWHQPGNHQFSGTHRGMAVVGPMLGKMMEVSNGTFAISRADDYMASGDWVAITLEFSGQANGVTLKQAGVDLLRIEDGKIVEVRLFSADQTQEDAFWGR” as the sequence, how does the “soluble on expression in E. coli” value read?
A: soluble

Q: With “MSASKILSQKIKVALVQLSGSSPDKMANLQRAATFIERAMKEQPDTKLVVLPECFNSPYSTDQFRKYSEVINPKEPSTSVQFLSNLANKFKIILVGGTIPELDPKTDKIYNTSIIFNEDGKLIDKHRKVHLFDVDIPNGISFHESETLSPGEKSTTIDTKYGKFGVGICYDMRFPELAMLSARKGAFAMIYPSAFNTVTGPLHWHLLARSRAVDNQVYVMLCSPARNLQSSYHAYGHSIVVDPRGKIVAEAGEGEEIIYAELDPEVIESFRQAVPLTKQRRFDVYSDVNAH” as the sequence, how does the “soluble on expression in E. coli” value read?
A: soluble
